Drawing on the supplement of paper PMC6755084, this text covers fraction ligated for 40 variants.

B1: minF1; the commonest letter at each place (parent)
chain: GAGACCGCAACTGAAAAGTTGTTATCAGAAATGGATGGGTTGAATTTCTGCACGTAGAAGCAAAAGGC

In this series the parent is B1. Briefly: fraction ligated after 30 min (ligated reads / total reads); higher = more ligase activity. As to conditions: with F1*subA RNA substrate (template-directed ligation), 42 °C. An outline of the steps:
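Oligo-pool templates of minimized ligase ribozyme variants were PCR-amplified, T7-transcribed and gel-purified. Ligated and unligated RNAs were gel-separated, reverse transcribed with barcoded primers, and MiSeq-sequenced; core bases were filtered at quality ≥30. Fraction ligated per variant was ligated reads over total reads.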
Turning to GAGACCGCAACTGAAAAGTTGTTATCATAGATGGATGGGTTGAATTTCTGCACGTAGAAGCAAAAGGC [G28T A30G], the fraction ligated was 0.835.
In the case of GAGACCGCAACTGAAAAGTTGTTATCATAAATGGATGGGTTGTATTTCTGCACGTAGAAGCAAAAGGC [G28T A43T] it was 0.158; in that of GAGACCGCAACTGAAAAGTTGTTATCATAAATGGATGGGTTGGATTTCTGCACGTAGAAGCAAAAGGC [G28T A43G], 0.0967.
In the case of GAGACCGCAACTGAAAAGTTGTTATCATAAATGGATGGGTTGCATTTCTGCACGTAGAAGCAAAAGGC [G28T A43C] it was 0.117; in that of GAGACCGCAACTGAAAAGTTGTTATCAGCAATGGATTGGTTGAATTTCTGCACGTAGAAGCAAAAGGC [A29C G37T], 0.0129; in that of GAGACCGCAACTGAAAAGTTGTTATCAGCAATGGATAGGTTGAATTTCTGCACGTAGAAGCAAAAGGC [A29C G37A], 0.00482.
For GAGACCGCAACTGAAAAGTTGTTATCAGCAATGGATCGGTTGAATTTCTGCACGTAGAAGCAAAAGGC [A29C G37C] the value was 0.00528; for GAGACCGCAACTGAAAAGTTGTTATCATAAATGAATGGGTTGAATTTCTGCACGTAGAAGCAAAAGGC [G28T G34A], 0.141.
Turning to GAGACCGCAACTGAAAAGTTGTTATCATAAATGCATGGGTTGAATTTCTGCACGTAGAAGCAAAAGGC [G28T G34C], the fraction ligated is 0.00596.
In the case of GAGACCGCAACTGAAAAGTTGTTATCATAAATGTATGGGTTGAATTTCTGCACGTAGAAGCAAAAGGC [G28T G34T] it was 0.00519.
In the case of GAGACCGCAACTGAAAAGTTGTTATCAGCAAGGGATGGGTTGAATTTCTGCACGTAGAAGCAAAAGGC [A29C T32G] it was 0.0113; in that of GAGACCGCAACTGAAAAGTTGTTATCAGCAACGGATGGGTTGAATTTCTGCACGTAGAAGCAAAAGGC [A29C T32C], 0.0191.
With GAGACCGCAACTGAAAAGTTGTTATCAGCAAAGGATGGGTTGAATTTCTGCACGTAGAAGCAAAAGGC [A29C T32A], the fraction ligated stood at 0.0419.
For GAGACCGCAACTGAAAAGTTGTTATCATAAATGGATAGGTTGAATTTCTGCACGTAGAAGCAAAAGGC [G28T G37A] the value was 0.00866; for GAGACCGCAACTGAAAAGTTGTTATCATAAATGGATTGGTTGAATTTCTGCACGTAGAAGCAAAAGGC [G28T G37T], 0.0287; for GAGACCGCAACTGAAAAGTTGTTATCATAAATGGATCGGTTGAATTTCTGCACGTAGAAGCAAAAGGC [G28T G37C], 0.00638.
Turning to GAGACCGCAACTGAAAAGTTGTTATCAGCAATGGATGGGTTGTATTTCTGCACGTAGAAGCAAAAGGC [A29C A43T], the fraction ligated was 0.0813.
In the case of GAGACCGCAACTGAAAAGTTGTTATCAGCAATGGATGGGTTGGATTTCTGCACGTAGAAGCAAAAGGC [A29C A43G] it was 0.0549; in that of GAGACCGCAACTGAAAAGTTGTTATCAGCAATGGATGGGTTGCATTTCTGCACGTAGAAGCAAAAGGC [A29C A43C], 0.0193.
For GAGACCGCAACTGAAAAGTTGTTATCAGCAATGTATGGGTTGAATTTCTGCACGTAGAAGCAAAAGGC [A29C G34T] the value was 0.00671.
For GAGACCGCAACTGAAAAGTTGTTATCAGCAATGAATGGGTTGAATTTCTGCACGTAGAAGCAAAAGGC [A29C G34A] the value was 0.042; for GAGACCGCAACTGAAAAGTTGTTATCAGCAATGCATGGGTTGAATTTCTGCACGTAGAAGCAAAAGGC [A29C G34C], 0.00225; for GAGACCGCAACTGAAAAGTTGTTATCATAAATCGATGGGTTGAATTTCTGCACGTAGAAGCAAAAGGC [G28T G33C], 0.764.
On to GAGACCGCAACTGAAAAGTTGTTATCATAAATAGATGGGTTGAATTTCTGCACGTAGAAGCAAAAGGC [G28T G33A], for which the fraction ligated was 0.814.
For GAGACCGCAACTGAAAAGTTGTTATCATAAATTGATGGGTTGAATTTCTGCACGTAGAAGCAAAAGGC [G28T G33T] the value was 0.725.
GAGACCGCAACTGAAAAGTTGTTATCATAAGTGGATGGGTTGAATTTCTGCACGTAGAAGCAAAAGGC [G28T A31G]: the fraction ligated worked out at 0.82.
In the case of GAGACCGCAACTGAAAAGTTGTTATCATAACTGGATGGGTTGAATTTCTGCACGTAGAAGCAAAAGGC [G28T A31C] it was 0.82; in that of GAGACCGCAACTGAAAAGTTGTTATCATAATTGGATGGGTTGAATTTCTGCACGTAGAAGCAAAAGGC [G28T A31T], 0.827.
For GAGACCGCAACTGAAAAGTTGTTATCACAAATGGATGGGTTAAATTTCTGCACGTAGAAGCAAAAGGC [G28C G42A], the fraction ligated stood at 0.264.
For GAGACCGCAACTGAAAAGTTGTTATCACAAATGGATGGGTTCAATTTCTGCACGTAGAAGCAAAAGGC [G28C G42C] the value was 0.0102; for GAGACCGCAACTGAAAAGTTGTTATCACAAATGGATGGGTTTAATTTCTGCACGTAGAAGCAAAAGGC [G28C G42T], 0.0849; for GAGACCGCAACTGAAAAGTTGTTATCATTAATGGATGGGTTGAATTTCTGCACGTAGAAGCAAAAGGC [G28T A29T], 0.829.
In the case of GAGACCGCAACTGAAAAGTTGTTATCATGAATGGATGGGTTGAATTTCTGCACGTAGAAGCAAAAGGC [G28T A29G] it was 0.832; in that of GAGACCGCAACTGAAAAGTTGTTATCATCAATGGATGGGTTGAATTTCTGCACGTAGAAGCAAAAGGC [G28T A29C], 0.784.
For the variant GAGACCGCAACTGAAAAGTTGTTATCAGCAATGGATGGGTTGACTTTCTGCACGTAGAAGCAAAAGGC [A29C A44C], the fraction ligated came out at 0.607.
In the case of GAGACCGCAACTGAAAAGTTGTTATCAGCAATGGATGGGTTGAGTTTCTGCACGTAGAAGCAAAAGGC [A29C A44G] it was 0.748.
On to GAGACCGCAACTGAAAAGTTGTTATCAGCAATGGATGGGTTGATTTTCTGCACGTAGAAGCAAAAGGC [A29C A44T], for which the fraction ligated turned out to be 0.705.
For GAGACCGCAACTGAAAAGTTGTTATCAGCGATGGATGGGTTGAATTTCTGCACGTAGAAGCAAAAGGC [A29C A30G] the value was 0.827; for GAGACCGCAACTGAAAAGTTGTTATCAGCCATGGATGGGTTGAATTTCTGCACGTAGAAGCAAAAGGC [A29C A30C], 0.563; for GAGACCGCAACTGAAAAGTTGTTATCAGCTATGGATGGGTTGAATTTCTGCACGTAGAAGCAAAAGGC [A29C A30T], 0.81.
